Reference: patent US20060062793A1, “Modified antibodies to prostate-specific membrane antigen and uses thereof” (priority 2004, published 2006)
Substitutions are numbered along the chain they refer to.

B1: deJ415: deimmunized J415, heavy chain J415DIVH4 combined with light chain J415DIVK5; ATCC PTA-4174 (antibody, V domains shown)
VH: EVKLEESGGGLVQPGGSMKISCVASGFTFSNYWMNWVRQSPEKGLEWVAEIRSQSNNFATHYAESVKGRVIISRDDSKSSVYLQMNSLRAEDTAVYYCTRRWNNFWGQGTTVTVSS
VL: NIVMTQFPKSMSASAGERMTLTCKASENVGTYVSWYQQKPTQSPKMLIYGASNRFTGVPDRFSGSGSGTDFILTISSVQAEDLVDYYCGQSYTFPYTFGGGTKLEMK
B2: J415: murine monoclonal antibody to human PSMA; hybridoma ATCC HB-12109 (antibody, V domains shown)
VH: B1 VH with I20L, S87N, A94G, V95I, V112L
VL: B1 VL with A13I, A15V, M19V, T41E, S63T, G68A, A80T

Tests used:
[1] = test system: LNCap membrane preparation; assay: ELISA for binding of J415 deimmunized antibodies to LNCap membrane preparation; design: species or system human
Description: The J415 deimmunized antibodies (including various combinations of the deimmunized light chain and heavy chain subunits) were tested in an ELISA for binding to LNCap membrane preparation following the protocol as detailed above. ELISA plates were coated with LNCap membrane preparation and blocked with 5% BSA in phosphate buffered saline. Doubling dilutions of the J415 chimeric antibody (murine variable heavy and light chain regions fused to human constant heavy and light chain regions, respectively) and the deimmunized antibodies were applied. Detection was with horseradish peroxidase conjugated goat anti-human IgG and donkey anti-mouse for chimeric and mouse antibodies respectively. Color was developed with o-phenylene diamine substrate.

[2] = test system: PSMA-positive human LNCaP tumors; assay: Biodistribution of 111In labeled MAbs in nude mice bearing LNCaP tumors; format: in vivo, mouse
Description: Prior to use, the cells were trypsinized, counted and suspended in Matrigel (Collaborative Biomedical Products, Bedford, Mass.). Nu/Nu Balb C mice 8-10 weeks of age were inoculated, in the right and left flanks, with a suspension of 5×10^6 LNCaP cells in Matrigel (BD Biosciences, Bedford Mass.). After a period of 14-18 days, tumors (100-300 mg) had developed. The PSMA-negative DU145 and PC3 cells were implanted in nude mice in an identical manner.
The PSMA-positive and PSMA-negative tumor bearing mice were injected, via the tail vein, with 80 KBq of the iodinated MAb (400 MBq/mg) in 200 μL of PBS (pH 7.4, 0.2% BSA). Groups of animals (3-8/group) were sacrificed after 2, 4 or 6 days. The major organs and tumors were recovered. The tissue samples were weighed and counted, with appropriate standards in an automatic NaI(Tl) counter. These measured relative activity data (cpm) were background corrected and expressed as a percentage of the injected dose per gram (% ID/g). […] J415, J591 and 7E11 were labeled with ^111In (100 MBq/mg). 80 KBq of the ^111In labeled MAbs were injected in groups of animals. The % ID/g in various organs and tumor tissues was determined at 2-6 days post injection in a similar way as described for ^131I labeled MAbs.

LNCaP tumor sections = format: in vivo, mouse; settings: 131I-labeled, 4 to 6 days after intravenous injection
Description: For several animals (n=20), harvested tumor samples were immediately cooled in liquid nitrogen and frozen in embedding medium (O.C.T. 4583, Sakura Finetec, Torrance Calif.). Twenty micron sections were cut and the tumor sections were either fixed with acetone and placed in direct contact with a sheet of photographic film (Biomax, Kodak, Rochester, N.Y.) or stained with hematoxin/eosin prior to exposure of the film. Tumors from control animals were collected and cut into 10 μm sections. […] Non-specific binding was determined in the presence of 100 nM J591 MAb. These sections were then washed 3 times with PBS (containing 0.2% BSA) and once with Tris buffer prior to being fixed with acetone and then exposed to photographic film.

Row | Molecule | binding to LNCap cells as compared to the chimeric antibody [1] | kinetics of blood clearance [2] | tumor uptake over time [2] | tumor/blood ratios [2] | intra-tumoral distribution pattern (LNCaP tumor sections)
1 | B1 | equivalent binding |  |  |  | 
2 | B2 |  | faster compared to 7E11 | gradually increased with time and is quite similar to that of 7E11 | significantly higher compared to that of 7E11 | distinct preferential accumulation in areas of viable tumor
